According to paper PMC5700162, “Structural insights into the committed step of bacterial phospholipid biosynthesis” (Nature Communications, 2017):

B1: aaPlsY (Aquifex aeolicus VF5) (protein)
chain: MKALFLVIFAYLLGSITFGEVIAKLKGVDLRNVGSGNVGATNVTRALGKKYGVLVFFLDFLKGFIPALIAVKSFGIDSWVLTFTGLASVLGHMYPVFFGFKGGKGVATALGVVFAVSPSVALFSFLVWLGIFLWKRYVSLASITATISAFLFLFVAGYPVNVLFMAIVIGALIIYRHRENINRLLTGREHRF
notes: full length, 192 residues, monomer, codon-optimised gene, E. coli BL21(DE3); assays: C-terminal His8 tag (p3EC); crystals: C-terminal His-eGFP removed by 3C protease; DDM-purified, reconstituted in lipid cubic phase
B2: aaPlsY (Aquifex aeolicus VF5; T41A) (protein)
chain: MKALFLVIFAYLLGSITFGEVIAKLKGVDLRNVGSGNVGAANVTRALGKKYGVLVFFLDFLKGFIPALIAVKSFGIDSWVLTFTGLASVLGHMYPVFFGFKGGKGVATALGVVFAVSPSVALFSFLVWLGIFLWKRYVSLASITATISAFLFLFVAGYPVNVLFMAIVIGALIIYRHRENINRLLTGREHRF
notes: as for B1
B3: aaPlsY (Aquifex aeolicus VF5; R45A) (protein)
chain: MKALFLVIFAYLLGSITFGEVIAKLKGVDLRNVGSGNVGATNVTAALGKKYGVLVFFLDFLKGFIPALIAVKSFGIDSWVLTFTGLASVLGHMYPVFFGFKGGKGVATALGVVFAVSPSVALFSFLVWLGIFLWKRYVSLASITATISAFLFLFVAGYPVNVLFMAIVIGALIIYRHRENINRLLTGREHRF
notes: as for B1
B4: aaPlsY (Aquifex aeolicus VF5; H92A) (protein)
chain: MKALFLVIFAYLLGSITFGEVIAKLKGVDLRNVGSGNVGATNVTRALGKKYGVLVFFLDFLKGFIPALIAVKSFGIDSWVLTFTGLASVLGAMYPVFFGFKGGKGVATALGVVFAVSPSVALFSFLVWLGIFLWKRYVSLASITATISAFLFLFVAGYPVNVLFMAIVIGALIIYRHRENINRLLTGREHRF
notes: as for B1
B5: aaPlsY (Aquifex aeolicus VF5; K104A) (protein)
chain: MKALFLVIFAYLLGSITFGEVIAKLKGVDLRNVGSGNVGATNVTRALGKKYGVLVFFLDFLKGFIPALIAVKSFGIDSWVLTFTGLASVLGHMYPVFFGFKGGAGVATALGVVFAVSPSVALFSFLVWLGIFLWKRYVSLASITATISAFLFLFVAGYPVNVLFMAIVIGALIIYRHRENINRLLTGREHRF
notes: as for B1
B6: aaPlsY (Aquifex aeolicus VF5; S142A) (protein)
chain: MKALFLVIFAYLLGSITFGEVIAKLKGVDLRNVGSGNVGATNVTRALGKKYGVLVFFLDFLKGFIPALIAVKSFGIDSWVLTFTGLASVLGHMYPVFFGFKGGKGVATALGVVFAVSPSVALFSFLVWLGIFLWKRYVSLAAITATISAFLFLFVAGYPVNVLFMAIVIGALIIYRHRENINRLLTGREHRF
notes: as for B1
B7: aaPlsY (Aquifex aeolicus VF5; H177A) (protein)
chain: MKALFLVIFAYLLGSITFGEVIAKLKGVDLRNVGSGNVGATNVTRALGKKYGVLVFFLDFLKGFIPALIAVKSFGIDSWVLTFTGLASVLGHMYPVFFGFKGGKGVATALGVVFAVSPSVALFSFLVWLGIFLWKRYVSLASITATISAFLFLFVAGYPVNVLFMAIVIGALIIYRARENINRLLTGREHRF
notes: as for B1
B8: aaPlsY (Aquifex aeolicus VF5; N180A) (protein)
chain: MKALFLVIFAYLLGSITFGEVIAKLKGVDLRNVGSGNVGATNVTRALGKKYGVLVFFLDFLKGFIPALIAVKSFGIDSWVLTFTGLASVLGHMYPVFFGFKGGKGVATALGVVFAVSPSVALFSFLVWLGIFLWKRYVSLASITATISAFLFLFVAGYPVNVLFMAIVIGALIIYRHREAINRLLTGREHRF
notes: as for B1
B9: aaPlsY (Aquifex aeolicus VF5; S35A) (protein)
chain: MKALFLVIFAYLLGSITFGEVIAKLKGVDLRNVGAGNVGATNVTRALGKKYGVLVFFLDFLKGFIPALIAVKSFGIDSWVLTFTGLASVLGHMYPVFFGFKGGKGVATALGVVFAVSPSVALFSFLVWLGIFLWKRYVSLASITATISAFLFLFVAGYPVNVLFMAIVIGALIIYRHRENINRLLTGREHRF
notes: as for B1
B10: aaPlsY (Aquifex aeolicus VF5; E189A) (protein)
chain: MKALFLVIFAYLLGSITFGEVIAKLKGVDLRNVGSGNVGATNVTRALGKKYGVLVFFLDFLKGFIPALIAVKSFGIDSWVLTFTGLASVLGHMYPVFFGFKGGKGVATALGVVFAVSPSVALFSFLVWLGIFLWKRYVSLASITATISAFLFLFVAGYPVNVLFMAIVIGALIIYRHRENINRLLTGRAHRF
notes: as for B1
B11: aaPlsY (Aquifex aeolicus VF5; N37A) (protein)
chain: MKALFLVIFAYLLGSITFGEVIAKLKGVDLRNVGSGAVGATNVTRALGKKYGVLVFFLDFLKGFIPALIAVKSFGIDSWVLTFTGLASVLGHMYPVFFGFKGGKGVATALGVVFAVSPSVALFSFLVWLGIFLWKRYVSLASITATISAFLFLFVAGYPVNVLFMAIVIGALIIYRHRENINRLLTGREHRF
notes: as for B1

Substrate: O=P(O)(O)OC[C@H](O)CO
Assay: coupled MDCC-PBP Pi-biosensor fluorescence assay in lipid cubic phase (monoolein)
Format: biochemical, Aquifex aeolicus
Details: co-substrate 1.8 mol% 16:0-P, pH 8.0, 30 °C, 0-50 mM G3P

B1 showed a Km of 1.39 mM.

Work on B1 yielded a kcat of 13.4 s⁻¹.

Substrate: O=P(O)(O)OC[C@H](O)CO
Assay: as above
Format: biochemical, Aquifex aeolicus
Details: co-substrate 3.3-5.2 mol% 16:0-P, pH 8.0, 30 °C, no technical replicates
Description: coupled MDCC-PBP Pi-biosensor fluorescence assay in lipid cubic phase (monoolein) on […]

First: B2
Second: B3
The Km of the first is 120-fold lower: 0.43 mM for the first, 50.46 mM for the second.

Compared with B4, B5 is 2.5-fold higher in Km: 2.64 mM for the first, 6.58 mM for the second.

Compared with B6, B7 is 3.2-fold higher in Km: 2.89 mM for the first, 9.24 mM for the second.

Compared with B8, B9 is 1.9-fold lower in Km: 26.31 mM for the first, 13.75 mM for the second.

First: B10
Second: B11
The Km of the first is 1.9-fold higher: 5.79 mM for the first, 3.04 mM for the second.

First: B2
Second: B3
The kcat of the first is 4.3-fold higher: 0.64 s⁻¹ for the first, 0.15 s⁻¹ for the second.

Compared with B4, B5 is 2.4-fold lower in kcat: 2.37 s⁻¹ for the first, 1 s⁻¹ for the second.

Compared with B6, B7 is 4.9-fold lower in kcat: 4.29 s⁻¹ for the first, 0.88 s⁻¹ for the second.

B8 and B9 are within 1.5-fold of each other in kcat: 0.62 s⁻¹ for the first, 0.64 s⁻¹ for the second.

Going from B10 to B11, the kcat falls from 18.5 s⁻¹ to 2.49 s⁻¹ (7.4-fold).

Molecular target: T1, aaPlsY (Aquifex aeolicus, UniProt O66905)
Assay: not given
Parameters: gene plsY
Details: 7.8 MAG LCP with 0.4 M Na2HPO4, pH 7.0; three phosphates from phosphate hole to phosphate clamp

`O=P(O)(O)O` [Pi, inorganic phosphate] was tested, and the “X-ray crystal structure, 1.83 Å” value was “three phosphates are trapped in a positive patch stretching from the phosphate hole”.

Molecular target: T1, aaPlsY
Assay: coupled MDCC-PBP Pi-biosensor fluorescence assay in lipid cubic phase (monoolein)
Format: biochemical
Parameters: gene plsY; full length, 192 residues, monomer, codon-optimised gene, E. coli BL21(DE3); assays: C-terminal His8 tag (p3EC); crystals: C-terminal His-eGFP removed by 3C protease; DDM-purified, reconstituted in lipid cubic phase
Details: co-substrate 30 mM glycerol phosphate; pH 8.0, 30 °C; 0-2 mol% 16:0-P in the lipid phase

For `CCCCCCCCCCCCCCCC(=O)OP(=O)(O)O` [16:0-P, palmitoyl phosphate], the “apparent Km” value was 0.1 mol% (relative to monoolein).
